Assay results as given in patent US20210238271A1 (Janssen / Centocor, published 2021).
Changes are numbered by the printed parent chain. Names may count otherwise.

T1: human lymphotoxin (human, UniProt P01374 35-205, limits assumed)
T1 sequence (looked up): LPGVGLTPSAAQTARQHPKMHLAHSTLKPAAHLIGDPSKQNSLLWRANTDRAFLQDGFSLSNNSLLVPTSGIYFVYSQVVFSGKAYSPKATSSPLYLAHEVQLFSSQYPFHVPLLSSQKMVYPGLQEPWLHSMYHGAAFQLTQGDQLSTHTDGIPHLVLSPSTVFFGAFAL

B1: GenTNV148.26.12 (antibody, human IgG1, kappa, V domains shown)
VH: QVQLVESGGGVVQPGRSLRLSCAASGFIFSSYAMHWVRQAPGNGLEWVAFMSYDGSNKKYADSVKGRFTISRDNPKNTLYLQMNSLRAEDTAVYYCARDRGIAAGGNYYYYGMDVWGQGTTVTVSS
VL: EIVLTQSPATLSLSPGERATLSCRASQSVYSYLAWYQQKPGQAPRLLIYDASNRATGIPARFSGSGSGTDFTLTISSLEPEDFAVYYCQQRSNWPPFTFGPGTKVDIKR
notes: Totally human IgG1 kappa from hybridoma, tested as hybridoma supernatant; also called C420A
B2: GenTNV86.14.34 (antibody, human IgG1, kappa, V domains shown)
VH: B1 VH
VL: B1 VL
notes: Totally human IgG1 kappa from hybridoma, tested as hybridoma supernatant; Only the variable regions were compared; also called C417A
B3: golimumab (antibody, human IgG1, kappa, V domains shown)
VH: B1 VH with P75S
VL: B1 VL
notes: Fully human IgG1 (G1m[z] allotype), kappa; also called SIMPONI

What was measured:
[1] = biological target: T2, recombinant human TNFα (human, UniProt P01375 77-233, 125I label in the receptor-blocking assay only); assay: competition: 125I-TNFα (5 ng/ml) preincubated with hybridoma supernatant, then bound to plate-coated p55-sf2, gamma counting; blocked partner p55-sf2
T2 construct: also called huTNFα; tumor necrosis factor alpha
Experimental: Varying amounts of hybridoma cell supernatants containing known amounts of TNV mAb were preincubated with a fixed concentration (5 ng/ml) of ¹²⁵I-labeled TNFα. […] Although eight TNV mAb samples were tested in these experiments, for simplicity three of the mAbs that were shown by DNA sequence analyses to be identical to one of the other TNV mAbs (see Section 5.2.2) are not shown here. Each sample was tested in duplicate. The results shown are representative of two independent experiments.
(§1) Assay for Inhibition of TNF Binding to Receptor. […] Serial dilutions of the eight TNV cell supernatants were prepared in 96-well round-bottom plates using PBS/0.1% BSA as diluent. […] The mixture was preincubated for one hour at RT. […] After 2 hrs at RT, Optiplates were washed three times with PBS-Tween. […] of Microscint-20 was added and the cpm bound determined using the TopCount gamma counter.
A simple binding assay was done to determine whether the eight TNV mAbs contained in hybridoma cell supernatant were capable of blocking TNFα binding to receptor.

[2] = biological target: T2, recombinant human TNFα; assay: inhibition of 125I-TNFα binding to plate-coated p55-sf2, hybridoma supernatants
Experimental: as §1
A simple binding assay was done to determine whether the eight TNV mAbs contained in hybridoma cell supernatant were capable of blocking TNFα binding to receptor. The concentrations of the TNV mAbs in their respective cell supernatants were first determined by standard ELISA analysis for human IgG.

[3] = biological target: T2, recombinant human TNFα; assay: cell-based or functional assay
[4] = biological target: T1, human lymphotoxin; assay: not described

Binder | IC50 (read off the curve) [1] | fold better at blocking TNF binding than TNV118 and TNV14 [2] | neutralizing TNFα bioactivity [3] | binding result [4]
B1 | ~4 ng/mL | ~4 fold | 4 fold | –
B2 | – | ~4 fold | – | –
B3 | – | – | – | no binding
